From patent US20170190788A1, “USES OF ANTI-HER3 ANTIBODIES FOR TREATING CANCER” (BULLDOG PHARMACEUTICALS, INC., priority 2014, published 2017)
Entries after “also recorded” stand apart in the source; their conditions may differ.

How the values were obtained:
ErbB3 (HER3) = biological target: T1, ErbB3 (HER3) (Homo sapiens (Human), UniProt P21860 20-1342); assay: binding of fluorescent probe to HT29, A375, A2058 and WM115 cells; mean fluorescence intensity, total over non-specific (excess unlabelled probe)
T1 construct: They are human tumour lines, so human HER3 is meant; also called HER3 receptor
Procedure: The effects of trametinib and vemurafenib on cell-surface expressed ErbB3 were also monitored. HT29, A375, A2058 and WM115 cells were treated with 100 nM trametinib or 1 μM vemurafenib for 24 hours at 37° C. […] Specific binding was determined by calculating the mean fluorescent intensity ratio of total binding (labeled probe alone) divided by the non-specific binding (labeled probe with excess of unlabeled probe). Values should be reported as the binding ratio of drug-treated samples divided by the untreated sample.

[1] = test system: B-Raf mutated cell lines (H29, A375, A2058 and WM115); assay: Cell proliferative assays in B-Raf mutated cell lines; assay type: cell-based; conditions: four B-Raf mutated cell lines
Procedure: To investigate whether NRG signaling attenuates the anti-proliferative effects of trametinib or vemurafenib, cells were exposed to the drugs in the presence or absence of NRG. In addition, 2C2-YTE was introduced in a separate set of samples. Cell proliferative assays were performed in all four B-Raf mutated cell lines (H29, A375, A2058 and WM115).

binding result (ErbB3 (HER3))	Molecule	effect of NRG on anti-proliferative effects of trametinib or vemurafenib [1]
binds	2C2-YTE anti-HER3 antibody (antibody, V domains shown, In the phosphorylation and proliferation assays it was unlabelled; also called 2C2-YTE mutant antibody; anti-HER3 antibody (2C2-YTE); not shown: human lambda light chain constant region) VH: EVQLLESGGGLVQPGGSLRLSCAASGFTFSYYYMQWVRQAPGKGLEWVSYIGSSGGVTNYADSVKGRFTISRDNSKNTLYLQMNSLRAEDTAVYYCARVGLGDAFDIWGQGTMVTVSS VL: QSVLTQPPSASGTPGQRVTISCSGSLSNIGLNYVSWYQQLPGTAPKLLISRNNQRPSGVPDRFSGSKSGTSASLAISGLRSEDEADYYCAAWDDSPPGEAFGGGTKLTVL	–
–	NRG: neuregulin, HER3 ligand used to stimulate cells (protein) SHLVKCAEKEKTFCVNGGECFMVKDLSNPSRYLCKCPNEFTGDRCQNYVMASFYKHLGIEFMEAE	can robustly attenuate the effects of BRAF and MEK inhibitors; also recorded: attenuates the anti-proliferative effects of the BRAF and MEK inhibitors
